Reference: paper doi:10.1101/2024.11.24.625074, “Assembly and lipid-gating of LRRC8A:D volume-regulated anion channels” (bioRxiv, 2024)

Biological target: the molecule itself
Assay: cryo-EM structure; LRRC8A_(BRIL):D complexes co-expressed in Sf9, purified in 20 mM HEPES, 150 mM KCl, 1 mM EDTA, 0.02% GDN, pH 7.4; α-BRIL Fab BAG2 and α-Fab Nb added as fiducials; two conformations resolved by 3D variability analysis, C1 symmetry

B1: Mus musculus LRRC8D (natural protein, UniProt Q8BGR2 1-859, looked up)
chain: MFTLAEVASLNDIQPTYRILKPWWDVFMDYLAVVMLMVAIFAGTMQLTKDQVVCLPVLPSPANSKAHTPPGNADITTEVPRMETATHQDQNGQTTTNDVAFGTSAVTPDIPLQATHPHAESTLPNQEAKKEKRDPTGRKTNLDFQQYVFINQMCYHLALPWYSKYFPYLALIHTIILMVSSNFWFKYPKTCSKVEHFVSILGKCFESPWTTKALSETACEDSEENKQRITGAQTLPKHVSTSSDEGSPSASTPMINKTGFKFSAEKPVIEVPSMTILDKKDGEQAKALFEKVRKFRAHVEDSDLIYKLYVVQTLIKTAKFIFILCYTANFVNAISFEHVCKPKVEHLTGYEVFECTHNMAYMLKKLLISYISIICVYGFICLYTLFWLFRIPLKEYSFEKVREESSFSDIPDVKNDFAFLLHMVDQYDQLYSKRFGVFLSEVSENKLREISLNHEWTFEKLRQHVSRNAQDKQELHLFMLSGVPDAVFDLTDLDVLKLELIPEAKIPAKISQMTNLQELHLCHCPAKVEQTAFSFLRDHLRCLHVKFTDVAEIPAWVYLLKNLRELYLIGNLNSENNKMIGLESLRELRHLKILHVKSNLTKVPSNITDVAPHLTKLVIHNDGTKLLVLNSLKKMMNVAELELQNCELERIPHAIFSLSNLQELDLKSNNIRTIEEIISFQHLKRLTCLKLWHNKIVAIPPSITHVKNLESLYFSNNKLESLPTAVFSLQKLRCLDVSYNNISTIPIEIGLLQNLQHLHITGNKVDILPKQLFKCVKLRTLNLGQNCIASLPEKISQLTQLTQLELKGNCLDRLPAQLGQCRMLKKSGLVVEDQLFDTLPLEVKEALNQDVNVPFANGI
notes: the tag was cut off with TEV protease during purification, so a short C-terminal remnant of the linker and the cleavage site is left; Two copies stand in the hexameric channel; also called mmLRRC8D; LRRC8D subunit; source: Sf9 cells, co-expressed with LRRC8A_(BRIL) from one baculovirus; purified in GDN (α-mCherry nanobody resin, α-GFP nanobody resin, Superose 6 Increase); not shown: mCherry, …
  binding result: binds
